Laboratory results: the supplement of paper PMC9876800

System: peptide library, one residue held at a place counted from the S/T acceptor
Experiment: relative phosphorylation of the sub-library (ratio to the mean residue at this position); higher = residue favoured
Details: human
Method in brief: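 Relative sub-library phosphorylation is the ratio of each sub-library's signal to the mean residue at that position. The signal came from phosphorimaging of spots on streptavidin membranes, quantified by densitometry, after purified recombinant kinases reacted with biotinylated degenerate peptide sub-libraries in 384-well plates. Reactions held 50 μM peptide and 50 μM ATP spiked with γ-32P-ATP for 90 min under kinase-specific conditions.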

MAK, construct: Full length, sequence (P20794 whole entry, looked up): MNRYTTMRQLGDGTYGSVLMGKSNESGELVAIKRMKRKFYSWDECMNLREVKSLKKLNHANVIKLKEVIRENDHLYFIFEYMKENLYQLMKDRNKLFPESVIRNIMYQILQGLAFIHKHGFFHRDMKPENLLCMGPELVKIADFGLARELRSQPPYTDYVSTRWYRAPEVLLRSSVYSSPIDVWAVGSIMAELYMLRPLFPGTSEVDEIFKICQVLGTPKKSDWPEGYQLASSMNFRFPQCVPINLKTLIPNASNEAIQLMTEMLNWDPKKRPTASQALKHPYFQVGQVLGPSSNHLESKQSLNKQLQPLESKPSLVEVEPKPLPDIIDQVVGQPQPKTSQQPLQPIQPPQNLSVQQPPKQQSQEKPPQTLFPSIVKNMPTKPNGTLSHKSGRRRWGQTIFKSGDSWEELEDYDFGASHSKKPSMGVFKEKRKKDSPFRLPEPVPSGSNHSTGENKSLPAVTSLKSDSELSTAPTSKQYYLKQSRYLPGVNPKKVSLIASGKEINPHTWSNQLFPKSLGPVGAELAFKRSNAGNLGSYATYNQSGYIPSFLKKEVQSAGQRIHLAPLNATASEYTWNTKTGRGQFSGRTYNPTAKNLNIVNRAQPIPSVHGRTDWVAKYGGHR

MAK, construct: Full length (from UniProt P20794)
relative phosphorylation
Details	at +1	at +2	at +3	at +4	at -1	at -2	at -3	at -4	at -5
A fixed	2.18	1.07	0.904	0.995	1.19	0.647	0.835	1.16	1.16
D fixed	0.175	1.06	0.653	0.701	0.423	0.165	0.276	0.752	0.824
E fixed	0.155	0.749	0.523	0.677	0.32	0.18	0.251	0.781	0.745
F fixed	0.321	0.762	0.858	0.704	0.498	0.159	0.201	0.633	0.864
G fixed	2.02	1.56	1.51	1.49	1.8	0.63	0.653	1.33	1.5
H fixed	0.308	1.09	1.32	1.19	0.982	0.251	0.428	0.856	0.994
I fixed	0.431	0.736	0.785	0.785	0.315	0.476	0.291	0.647	0.745
K fixed	0.324	1.01	1.37	1.21	1.92	0.779	0.872	1.06	0.989
L fixed	0.394	1.03	1.06	0.853	0.638	0.632	0.356	0.707	0.723
M fixed	0.445	0.979	0.901	0.878	1.07	0.406	0.309	0.803	0.855
N fixed	0.322	1.05	0.924	0.995	0.94	0.313	0.382	0.732	0.726
P fixed	7.71	0.986	1.21	1.36	1.51	8.65	2.32	1.8	1.9
Q fixed	0.393	0.939	0.904	0.898	1.13	0.394	0.513	0.898	1.03
R fixed	0.759	1.08	1.47	1.48	2.24	2.32	8.51	2.58	1.36
V fixed	0.455	0.907	0.978	0.877	0.63	0.631	0.302	0.81	0.821
W fixed	0.329	0.988	0.801	1.01	0.616	0.192	0.238	0.725	0.725
Y fixed	0.274	1	0.831	0.908	0.788	0.178	0.254	0.725	1.04
pThr fixed	0.401	0.534	0.748	0.735	0.265	0.377	0.408	0.851	0.905
pTyr fixed	0.326	0.839	0.706	0.678	0.338	0.212	0.365	0.759	0.912
